Measured values as given in a protein production outcome set (Wang et al. 2014).

Assay: label from the status in PepcDB records

For “MRFSQLLLALCCLTFGAQADVFIKQEDMDLKQALEAIAKDMQLKLVSDIDSKTSSQPITQTLSGSGPMLLSKLSSVFDFDWYTFGGTLTIQSGQQYANYTYKPKNISPSQLLSEMKGAFKTNSTTKIKLVERGHSLLFSGTRKFVNDAMGYASMVDRNQFLEKGNNLEVARIEFNYVSVMDRNIATYDGQVNFPGAQSLIAAAITNIGQFTNLNDEELTSRAYRVKLSQGEKQALEEDEKSTKVQALPGTNALLIRGTQEEVKLAKRIAALIDVKRRQLLFSLKVYDISAERKENLGIDSGWLNGNRGIYDIVVPPFTETKDFVKNFQALYSNGIARSVYETNLVALENQQSQFGKKQTATLTLISDKQVKTEKIEADNSLYVTGRLLPSGQVQARIQYVEESLDEDDNEDSNRPPRVSSQSLNSEVYIQPNQTVILGGFDNTVTQQQESGVPIISSIPLLGELFKYTSESKHKYKRYVSISFQVIE”, the protein production was “failed”.

For “MMNLALQQRISELGPWFQNMRFGEIETAPDHFLGDYPAFKWEGFKHVVPKDLEGCSVLDIGCNAGFYALEMKRRNAGRVLGIDSDPRYLEQARFAADHFGLDVEFRQMSVYEVSKLGERFDLVLFMGVLYHLRHPLLALDLLYEHVVADLMLFQCLQRGEERIAKLEEDYDFSEWKIFDRSDFPKLFFVEERFAADPTNWFIPNKAAVEAMLRSSGFVIEANPEREVYLCRRGRRPYKVEPPPG”, the protein production was “failed”.

In the case of “MLETYALKNGAVFISDAHFLPKSPHLIHTLKELLSAKPPQVFFMGDIFHVLVGYLPLDKEQQKIIDLIHALSEISQVFYFEGNHDFSMRFVFNSKVMVFERQNQPVLFQYDNKRFLLAHGDLFITKAYEFYITQLTSTWARFFLTFLNLLSFKTLYPLFKKLIYQKPVRLWELEPKELQSFIEKRLKAYQNYIKDLNIGSIDGIIEGHFHLKSGAKIPLNTPIYCPLPSFYYEQSLFKVSSSVLEPSQNKDA”, the protein production is reported as “failed”.

In the case of “MKISPSLMCMDLLKFKEQIEFIDSHADYFHIDIMDGHFVPNLTLSPFFVSQVKKLATKPLDCHLMVTRPQDYIAQLARAGADFITLHPETINGQAFRLIDEIRRHDMKVGLILNPETPVEAMKYYIHKADKITVMTVDPGFAGQPFIPEMLDKLAELKAWREREGLEYEIEVDGSCNQATYEKLMAAGADVFIVGTSGLFNHAENIDEAWRIMTAQILAAKSEVQPHAKTA”, the protein production is reported as “failed”.

With “KDNTKVIAHRGYWKTEGSAQNSIRSLERASEIGAYGSEFDVHLTADNVLVVYHDNDIQGKHIQSCTYDELKDLQLSNGEKLPTLEQYLKRAKKLKNIRLIFELKSHDTPERNRDAARLSVQMVKRMKLAKRTDYISFNMDACKEFIRLCPKSEVSYLNGELSPMELKELGFTGLDYHYKVLQSHPDWVKDCKVLGMTSNVWTVDDPKLMEEMIDMGVDFITTDLPEETQKILHSRAQ” the protein production was “not failed”.

For “MNSFLIIIFRLYLPISVAILTGVLLSFSLEKLQGNFSKNKHLSLVVPNYLGKFLFWFGVPLGVINFVHKANLSGGIWLSPIVAWGAVVLGIFLSWLWVQTLFPKPSLAFQTSFTLVSTVGNTSYIGFPIILLLPQLGPDYFGWAILYDLLGTFLAAYGLGSILASRSLLTNPNKIISFGLDSPVFPINQKTITDHIKSSILKIFQWLKNNLVILVKNPTLIAFIIGLILRPIVFPPWLDISLGWFAWSIIMLSLILMGMRLQQLDSWGNIKIAFSAVSIKMLLVPLVIAMALTTAGLSGPPRLVLVLQSSMPSAFASLILAEAYDLDRDLVVTCLGLSSLMLFFTLPFWLWGFTTW”, the protein production was “failed”.

With “MAQKENNIIPMIFDEAFYRKMATQKWRQQDYKKAAEYYEKVLELSPKDFDIQQHYAQCLVKLNIGKKAERLFYENIVKDFHVAESFYELSQLNIELNEPNKAFLFGINYVILSEDKDFREMLEKTFEVAYTNEQKIELEAQLFSTQLLFQFLFSQGRLEEARTYILNQSYEIQQHRVIRNLLAMCYLYLGEYDSAKAMFEELLKEDNSDVHALCHYTLLLYNKKETEKYQKYLKILNKVVPLNDDETFKLGIVLSYLKQYRASQNLLYPLYKKGKFVSIQMYNALSFNFYYLGNKDESIEMWNKLTQISKVDVGYAPWVIEESKTVFESRVLPLLLDDNNHYRLYGIFLLHQLNGKEILMTEDIWSILESMNDYEKLYLTYLVQGLTLNKLDFIHRGMQRLYNFKKFKYNTSLFTDWINQAEMIISENVDLVDVDRYVAAFVYLSYRRSSQPLTKRQLMDDFNVSRYKLNKAIEFILSI” the protein production was “failed”.

For “MRHLKSGRKLNRHSSHRLALYRNQAKSLLTHGRITTTVPKAKELRGFVDHLIHLAKRGDLHARRLVLRDLQDVKLVRKLFDEIAPRYRDRQGGYTRVLKLAERRRGDGAPLALVELVE”, the protein production was “not failed”.

For “ESPLYCVMAKADGPVQGLADLKGRKVGFSVAGIEEALLHTMLRTNGVEPAEVEFVNVNFALTPALASGQADAVAGAFRNFELHQIAAAGSEGRCFLPEENGVPSYEELIYVANPDRMDREKVVAFLKVTERAAGFIADHPEEAWEIFRG”, the protein production was “failed”.

With “MQTTAAAQERYTRTAIFLHWCMTAMIVGLIGLGFYMGQQPPSPEKYALYELHKSLGVVTVLLLFARFIWRAANPPPELPTAYSQLLRTASHLGHFALYVLMFAVPVSGWVMSAAYGRPASLFGVPIPPPVTKSEDLAELWGTIHFALGSALALVIAGHTLFALKHHFIDKDGLLWRMWVRCP” the protein production was “failed”.

With “MKSSVVSAWDMLWRSHREAKRLLLFAMPVRAGKDAGLKINSEQTMKEEKPPSYKTPQKIGLLLGPALFFAVLLFFFPEGLSYEGRMVLATTLWVAVWWITEAVPIPAASLLPIVLLPLTGALEGAAVTSSYGDPIVFLFLGGFLIALAMERWNLHKRIALNIISVVGTSTSRIVLGFMAATGFLSMWVSNTAAVMMMLPIGTAIIHQVSAVIKSERKDLAAEEAKFSKALIFSIGYAGTIGGLGTLIGTPPNIILAANIKKLYGVEVSFGGWMAFAVPVVVILLVAVWLYLTKVAHPIKMKELPGGKELILEEKRKLGKMSFEETMVLLVFGFAAFMWVTRTFLWDDKIPGIDDTMIAIFAASLLFLIPSLNKGGRVLDWSVSKDLPWGILLLFGGGLALATGFKETGLAEWIGGRLTVLDGFNFVVIVIISTALVLFLTEITSNTATATMILPVLASLALALNVHPYALMVPAAMAANCAFMLPVGTPPNAIIFASGKLKISEMVRTGFVINIFTLILIVGAVFYILPHLWGVDLTVFPDNLKSN” the protein production was “failed”.

In the case of “MPASCQETARLLLRAPTLDDLPQACAIHGDPQTNRFNPNGPINAAACADKLHGWIEHWQQHGFGYWAIALRSDPQRLIGFGGIMQGFFGHEPGLNLYFRLRPEAWGQGYAAEMARAALHLAFSELHAPRVTGLVRPDNLPSRRALERLGLSLDGELDDFPGQAPSLLYRISAPDNPVPG”, the protein production is reported as “failed”.

For “MHRVGSAGSNGGSVRTRKEKKLTYVLNDANDTKHCAGINCLDVLKSSVSNDQSYLFTGSRDGTLKRWAFDEDATFCSATFESHVDWVNDAALAGESTLVSCSSDTTVKTWDGLSDGVCTRTLRQHSDYVTCLAVAAKNNNVVASGGLGGEVFIWDIEAALSPVTKPNDANEDSSSNGANGPVTSLRTVGSSNNISVQSSPSHGYTPTIAKGHKESVYALAMNDTGTMLVSGGTEKVLRVWDPRTGSKSMKLRGHTDNVRVLLLDSTGRFCLSGSSDSMIRLWDLGQQRCLHTYAVHTDSVWALACNPSFSHVYSGGRDQCLYLTDLATRESVLLCTKEHPIQQLALQDNSIWVATTDSSVERWPAEVQSPKTVFQRGGSFLAGNLSFNRARVSLEGLNPAPAYKEPSITVPGTHPIVQHEILNNKRQILTKDAAGSVKLWDITRGVVVEDYGKISFEEKKEELFEMVSIPSWFTVDTRLGCLSVHLETPQCFSAEMYSADLKVSGRPEDDKINLARETLKGLLGHWLAKKKHKPKPQVLASGDTLSVKDTKKNLSASKTEESSAASDPVYPPFEFSSVSPPSIITEGSQGGPWRKKITEFTGTEDEKDFPLWCLDAVLNNRLPPRENTKLSFFLHPCEGSSVQVVTLGKLSAPRILRVHKVTNYVVEKMVLDNPLDSLAIDAASVSGGQPQPLFSGNGLLQSGLKPWQKLRPSIEILCNSQVLSPDMSLATVRAYVWKKPEDLILNYRVAIAR”, the protein production was “failed”.

For “SRPRLSQLSVTDVTTSSLRLNWEAPPGAFDSFLLRFGVPSPSTLEPHPRPLLQRELMVPGTRHSAVLRDLRSGTLYSLTLYGLRGPHKADSIQGTARTL”, the protein production was “not failed”.

With “MDYFRSPDGPMFMIICGEGPCSGIANDYINESLNKKLNISSGGSDNPWFFFGISYSGALSAWFRLKFPHLTCGSLASSAVVRAIYEFSEFDQQIGESAGQECKLALQETNKLLELGLKVKNKAVKSLFNATELDVDADFLYLTADAAVMAFQYGNPDKLCVPLVEAKKNGSDLVVTYSTYVREYCMRIWGLRVRTYNRKHLRNTVVTADSAYRLWWFQACTELGYFQVAPKYDSVRSHQINTTFHLDLCKSLFGKDVYPKVDATNLYYGGDRLAATKIIFTNGSEDPWRHASKQNSTHEMPSYIIKCRNCGHGSDIRGCPQSPMVIEGKSNNCSLPDYVNKVRQQMVEHIDLWLSECRQSIRSSI” the protein production was “not failed”.

In the case of “MSLESGFLEDAQANLTLRNFYFNRNFTNPTKAQGKAEEWTQSFILDAKSGFTQGTVGFGMDVLGLYSLKLDGGKGTGGTQLLPLDHDGRPADNFGRLGVAFKARLSQTEVKVGEWMPVLPILRSDDGRSLPQTFRGGQITSKEIAGLTLYGGQFRANSPRDDSSMSDMSMFGKAAFTSDRFNFQGAEYAFNDKRTQIALWNAQLKDIYSQQFINLIHSQPLGDWTLGANLGFFYGKEDGSARAGDMENRTWSGLFSAKYGGNTFYVGLQKLTGDSAWMRVNGTSGGTLANDSYNASYDNAKEKSWQVRHDYNFAALGVPGLTLMNRYISGSNVHTATVSDGKEWGRESEVAYTVQSGTLKNLNLKWRNSTMRRDFSNNEFDENRLIISYPLSLLEGHHHHHH”, the protein production is reported as “not failed”.

For “NATTLPEALKLMQYIGDAIGTIRDPQELFRTVTDKLRLLFAFDSAVIITIDRERREASVFFEMLRFELPEQLRHQTRSIAGTWLEGHLDDRTVTVASIARDIPSFGADGAPLLWTLHELGMRQIVLSPLRSGGRVIGFLSFVSAEEKLWSDGDKSLLSGVSSSIAIAVSNALAYEELRQREAETSMQLAINNALFTI”, the protein production was “not failed”.

In the case of “MTEAATFHLEMTRQIRAPRERVFDAFTDQAALAAWHCPRGMRVLEASADARVGGRYRLVMGSRDGSQHMVGGEYQKIDRANFLAYTWQWEGGELPEGTRTLIEVTLTDKDGGTLLHMRHSGFPDTATRDAHTSGWQSVFNRLSDYVDAEGSAGTVTVYGDGRSTYVRTVRMALAEKGIAYKLDPLTPRDPELLKHNPFGRIPAFTDGPLEFFETRAILSYIEEAFDGPSLISQAGPTARARCEQWISLINCHAYDAMVRRYVLQYVFPSGENGQPDRKTIDAALPDIAKQLDALEHAYGGRDFLAGNTLTMADLFFAPIVEYLGRFPESAAMLESRPNIRRAHAAMRARPSYAATQPNFG”, the protein production is reported as “failed”.

For “TEQGLQKVLQRLVQTMQRDALVRQTTNQLRESLQVDRVVLYYFYWQWHGQVTFEALSSEEFSILGSTGADECFNDEYAALYLAGRTKAIADIESEPITTCHRDFLRTLQVRANLVVPVLVPKGLWGLLVAHHCQGTHDWKESDIELMQAGAKTLA”, the protein production was “failed”.

In the case of “MEQIILDIIEFLKQFSYFGVVLALTFEFIPAEVVLPMVGYWVYEGDMNFWLAVLAGTLGGTTGPLTLYALGYYGGRPLLIKYGKYFFIKEEQIQKADDFFEKYGPVVAFVGRFVPGVRTLISVPCGMAKMNIWKFSIYTFVAMFPLTTLYVYFGMKLGPHWEKAADVVGQYMLPILGGVILIVASIFVYKYMKKRNKTESI”, the protein production is reported as “not failed”.

For “MLLEPLKQLKQADARLNMTQGVLEGVVGEELGVLPGMDSIFSMLELERLVGFFRQATRKNHKGKPFDVIIYDGISTEETLRMIGLSSKTRLYAKYLRSLAEKTDLGRLTSPSIMRFVDESMNINSNKSPFDGMTSPAMWDTLERFLETGASAWRDPERFRSFLVMDPNNPMSVKAALRYWGCTVQAGSHVSGAFAISSSHLTSQIPKADFVPLPFASASVPFTITGLDWDKILLDQANSSIRELLSETVSHGTSLTQTVMFDTAKKLVTLFMPGFEKSEIKLYQYRGGSELLIEAGDQRRVIHLPSQIQGKVGGAKFVDRSLIVTMR”, the protein production was “failed”.
